Where two headings read alike, the source gives them in different places.
| Substance | other (N-glycosylation at N241) | other (N-glycosylation at N289) | other (N-glycosylation at N611) |
| --- | --- | --- | --- |
| BG505 Env S241N variant (SOSIP and virus): S241N + P291T (double PNGS knock-in; direction given for knock-in relative to parental BG505) | abolishes |  |  |
| BG505 Env P291T (virus) / P291S (SOSIP) variant: P291T (PNGS knock-in at N289; direction given for knock-in relative to parental BG505) |  | abolishes |  |
| BG505 Env (BG505 SOSIP trimer and BG505 T332N virus): deletion of the N611 PNGS (N611A virus) |  |  | no change |
| BG505 Env P291T (virus) / P291S (SOSIP) variant: P291T and S241N + P291T (PNGS knock-ins; direction given for knock-in relative to parental BG505) |  | decreases |  |
| BG505 Env S241N variant (SOSIP and virus): S241N (PNGS knock-in; direction given for knock-in relative to parental BG505) | abolishes |  |  |
| BG505 Env (BG505 SOSIP trimer and BG505 T332N virus): N611A (virus) |  |  | increases |

Source: PMC8423243
